B1: Apt4 (Aptamer_423283) (ssDNA)
DNA: AGGCCAACTGGATAGCGAATGTTAGTGGACTCGGTTTGGACGTTCTCTCTTCTCGAATGCGAATTCAGCACTACCTTTTGGCAAACGCTAATAAGGG
B2: Apt1 (Aptamer_301794) (ssDNA)
DNA: AGGCCAACTGGATAGCGAATAGAACTCTGCCGTGGGGTGCAGTTTTAATTGTACGTTCTCGAATTCAGCACTACCTTTTGGCAAACGCTAATAAGGG
B3: Apt5 (Aptamer_253457) (ssDNA)
DNA: AGGCCAACTGGATAGCGAATTTGCAATCAGCGTGGGTGGGTTTCTTTTGCGTGGTGTGTCGAATTCAGCACTACCTTTTGGCAAACGCTAATAAGGG
B4: Apt2 (Aptamer_207452) (ssDNA)
DNA: AGGCCAACTGGATAGCGAATGTGGCAGTCGGTTTTGACTTGCGCTCTTGCATCATTATTCGAATTCAGCACTACCTTTTGGCAAACGCTAATAAGGG

Biological target: Staphylococcal enterotoxin A (SEA) (UniProt P0A0L2 25-257)
Test: […], Tris-HCl pH 7.4, 2.7 mM KCl, 1 mM CaCl2, 0.5 mM MgCl2; 30 min at 25 °C in 100 µL, […]
Conditions: protein: commercial; tags: biotinylated, immobilized on streptavidin magnetic beads

Chain of Staphylococcal enterotoxin A (SEA) (P0A0L2 25-257): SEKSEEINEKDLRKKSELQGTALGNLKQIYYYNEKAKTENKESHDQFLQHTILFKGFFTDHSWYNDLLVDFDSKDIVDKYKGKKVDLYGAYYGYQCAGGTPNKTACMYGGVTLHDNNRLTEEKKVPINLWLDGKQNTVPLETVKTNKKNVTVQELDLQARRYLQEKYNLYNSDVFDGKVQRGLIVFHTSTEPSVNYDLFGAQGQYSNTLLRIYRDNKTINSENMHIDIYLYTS

Row | Binder | binding result | Kd [nM]
1 | B1 | binds | 
2 | B2 | binds | 
3 | B3 |  | 13.4 ± 1.86
4 | B4 | binds | 
